The values below come from US11833164B2, “Methods of treating Fabry disease in patients having a mutation in the GLA gene” (Amicus Therapeutics, Inc., priority 2019, dated 2023).

Numbering of substitutions follows the chain as printed. Numbers in names are those of the source.

For this test, the system named is mutant form of α-Gal A expressed in HEK-293 cells. Kind of test: HEK assay (GLP HEK / Migalastat Amenability Assay): α-Gal A activity in lysates of transiently transfected HEK-293 cells incubated with or without 10 μM migalastat. The format is cell-based, human. The settings on record: for Absolute increase (% WT) / Relative increase: 10 μM migalastat versus baseline; for Baseline α-Gal A activity (% WT): absence of migalastat; for Baseline α-Gal A activity (% WT) / 10 μM migalastat α-Gal A activity (% WT): percentage of baseline wild-type α-Gal A activity; for Baseline α-Gal A activity (% WT) / Baseline α-Gal A activity / 10 μM migalastat α-Gal A activity / 10 μM migalastat α-Gal A activity (% WT): mean ± SEM; for Baseline α-Gal A activity / 10 μM migalastat α-Gal A activity: lysates of HEK-293 cells transiently transfected with the mutant form; for Baseline α-Gal A activity: incubated 5 days in absence of migalastat; for 10 μM migalastat α-Gal A activity: incubated 5 days with 10 μM migalastat; for 10 μM migalastat α-Gal A activity (% WT): with 10 μM migalastat, 5 days. An outline of the steps:
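Activity reported as 4-MU released (nmol/mg/hr), mean±SEM, from lysates of transiently transfected HEK-293 cells expressing mutant α-Gal A, cultured with or without 10 μM migalastat.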

B1: L331V (protein)
chain: MQLRNPELHLGCALALRFLALVSWDIPGARALDNGLARTPTMGWLHWERFMCNLDCQEEPDSCISEKLFMEMAELMVSEGWKDAGYEYLCIDDCWMAPQRDSEGRLQADPQRFPHGIRQLANYVHSKGLKLGIYADVGNKTCAGFPGSFGYYDIDAQTFADWGVDLLKFDGCYCDSLENLADGYKHMSLALNRTGRSIVYSCEWPLYMWPFQKPNYTEIRQYCNHWRNFADIDDSWKSIKSILDWTSFNQERIVDVAGPGGWNDPDMLVIGNFGLSWNQQVTQMALWAIMAAPLFMSNDLRHISPQAKALLQDKDVIAINQDPLGKQGYQVRQGDNFEVWERPLSGLAWAVAMINRQEIGGPRSYTIAVASLGKGVACNPACFITQLLPVKRKLGFYEWTSRLRSHINPTGTVLLQLENTMQMSLKDLL
Turning to B1, the “Absolute increase (% WT)” value worked out at 28.0 % WT, the Relative increase is 1.3, the “Baseline α-Gal A activity (% WT)” value worked out at 89.4 ± 4.5 % WT and the “Baseline α-Gal A activity” value is 25163 ± 801 nmol/mg/h. The “10 μM migalastat α-Gal A activity” value turned out to be 33050 ± 967 nmol/mg/h and the “10 μM migalastat α-Gal A activity (% WT)” value worked out at 117.4 ± 5.6 % WT.

B2: R332T (protein)
chain: B1 chain with V331L, R332T
B2: the “Absolute increase (% WT)” value stood at 36.2 % WT, the Relative increase amounted to 1.5, the “Baseline α-Gal A activity (% WT)” value is 73.3 ± 2.9 % WT and the “Baseline α-Gal A activity” value is 26141 ± 1254 nmol/mg/h. The “10 μM migalastat α-Gal A activity” value was 39363 ± 2176 nmol/mg/h and the “10 μM migalastat α-Gal A activity (% WT)” value is on record as 109.5 ± 4.7 % WT.

B3: R332G (protein)
chain: B1 chain with V331L, R332G
For the molecule B3, the “Absolute increase (% WT)” value came out at 23.4 % WT, the Relative increase was 1.3, the “Baseline α-Gal A activity (% WT)” value was found to be 78.8 ± 2.7 % WT and the “Baseline α-Gal A activity” value was determined as 33043 ± 1431 nmol/mg/h. Besides, the “10 μM migalastat α-Gal A activity” value came to 42737 ± 1959 nmol/mg/h and the “10 μM migalastat α-Gal A activity (% WT)” value came to 102.3 ± 4.6 % WT.

B4: R332I (protein)
chain: B1 chain with V331L, R332I
Regarding B4, the “Absolute increase (% WT)” value is recorded as 43.2 % WT, the Relative increase is 1.7, the “Baseline α-Gal A activity (% WT)” value is given as 63.3 ± 4.5 % WT and the “Baseline α-Gal A activity” value worked out at 24614 ± 1678 nmol/mg/h. For the same molecule, the “10 μM migalastat α-Gal A activity” value stood at 41550 ± 2461 nmol/mg/h and the “10 μM migalastat α-Gal A activity (% WT)” value was found to be 106.6 ± 6.4 % WT.

B5: R332S (protein)
chain: B1 chain with V331L, R332S
Consider B5, for which the “Absolute increase (% WT)” value was 20.5 % WT, the Relative increase is recorded as 1.2, the “Baseline α-Gal A activity (% WT)” value was determined as 87.6 ± 6.6 % WT and the “Baseline α-Gal A activity” value was 33936 ± 2528 nmol/mg/h. For the same molecule, the “10 μM migalastat α-Gal A activity” value worked out at 41700 ± 2778 nmol/mg/h and the “10 μM migalastat α-Gal A activity (% WT)” value turned out to be 108.1 ± 8.4 % WT.

B6: Q333E (protein)
chain: B1 chain with V331L, Q333E
In the case of B6, the “Absolute increase (% WT)” value worked out at 23.5 % WT, the Relative increase was 1.3, the “Baseline α-Gal A activity (% WT)” value came out at 77.8 ± 5.3 % WT and the “Baseline α-Gal A activity” value came to 30291 ± 2094 nmol/mg/h. The “10 μM migalastat α-Gal A activity” value was determined as 38709 ± 2428 nmol/mg/h and the “10 μM migalastat α-Gal A activity (% WT)” value is 101.3 ± 7.6 % WT.
